{
  "source": "patent US20250339569A1",
  "about": "(3B PHARMACEUTICALS, published 2025)",
  "binders": {"B1": {"name": "3BP-2775: H-Met-Gln-[Cys(3MeBn)-Glu-Ile-Trp-Val-Asp-Gly-Trp-Val-Thr-Cys]-Ttds-Lys(Bio)-NH2 (peptide)", "peptide": "H-MQCEIWVDGWVTC[Ttds(4)]K(Biotin)-NH2", "modifications": "linker 3-13 via mXylylene", "SMILES": "CC[C@H](C)[C@@H]1NC(=O)[C@H](CCC(=O)O)NC(=O)[C@@H](NC(=O)[C@H](CCC(N)=O)NC(=O)[C@@H](N)CCSC)CSCc2cccc(c2)CSC[C@@H](C(=O)NCCCOCCOCCOCCCNC(=O)CCC(=O)N[C@@H](CCCCNC(=O)CCCC[C@@H]2SC[C@@H]3NC(=O)N[C@@H]32)C(N)=O)NC(=O)[C@H]([C@@H](C)O)NC(=O)[C@H](C(C)C)NC(=O)[C@H](Cc2c[nH]c3ccccc23)NC(=O)CNC(=O)[C@H](CC(=O)O)NC(=O)[C@H](C(C)C)NC(=O)[C@H](Cc2c[nH]c3ccccc23)NC1=O", "notes": "Cyclic peptide, biotinylated"}, "B2": {"name": "[111In]In-DPI-4452: 111In-DOTA-PPAc-Q-[C(3MeBn)-EPD-Af3(Cpsu)-LTWSC]-NH2 (peptide)", "peptide": "{DOTA-PPAc}-QCE[dP]D[Phe(3-NHCO(CH2)3SO2NH2)]LTWSC-NH2", "modifications": "linker 2-11 via mXylylene; also: 111In complexed in DOTA", "notes": "also called 111In-3BP-4452; In-111-labeled DPI-4452"}, "B3": {"name": "[111In]In-DPI-4501: 111In-DOTA-Q-[C(3MeBn)-EPD-Aph(SaPr)-LTWSC]-NH2 (peptide)", "peptide": "{DOTA}-QCE[dP]D[Aph(SaPr)″]LTWSC-NH2", "modifications": "linker 2-11 via mXylylene; also: 111In complexed in DOTA", "notes": "also called 111In-3BP-4501; In-111-labeled DPI-4501"}, "B4": {"name": "[^111In]In-DPI-4452 (peptide)", "peptide": "{DOTA-PPAc}-QCE[dP]D[Phe(3-NHCO(CH2)3SO2NH2)]LTWSC-NH2", "modifications": "linker 2-11 via mXylylene; also: 111In complexed in DOTA", "notes": "Cyclic peptide with chelator DOTA complexing In-111; X stands for the non-natural residue Af3(Cpsu); also called ^111In-DOTA-PPAc-Q-[C(3MeBn)-EPD-Af3(Cpsu)-LTWSC]-NH2; ^111In-3BP-4452"}, "B5": {"name": "[^111In]In-DPI-4501 (peptide)", "peptide": "{DOTA}-QCE[dP]D[Aph(SaPr)(3)]LTWSC-NH2", "modifications": "linker 2-11 via mXylylene; also: 111In complexed by DOTA", "notes": "Cyclic peptide with chelator DOTA complexing In-111; X stands for the non-natural residue Aph(SaPr); also called ^111In-DOTA-Q-[C(3MeBn)-EPD-Aph(SaPr)-LTWSC]-NH2; ^111In-3BP-4501"}},
  "key": {"[1]": {"target": "T1, human carbonic anhydrase 9 (CAIX) (human, UniProt Q16790 38-459)", "test": "FACS binding assay on CAIX-expressing HT-29 cells, biotinylated compound detected with APC-streptavidin; pEC50 category (B = pEC50 between 7.1 and 8.0)", "procedure": "(§1) CAIX-expressing human HT-29 colorectal cancer cells (DSMZ, RRID: CVCL_0320) were cultured in McCoys's 5A modified medium (Biochrom, #F1015) including 10% fetal calf serum (FCS), 2 mM L-glutamine, 100 U/ml penicillin and 100 μg/mL streptomycin. Cells were detached with Accutase (Biolegend, #423201) and washed in FACS buffer (PBS including 1% FCS). Cells were diluted in FACS buffer to a final concentration of 500.000 cells per ml. 200 μL of the cell suspension were transferred to a u-shaped non-binding 96-well plate (Greiner) and cells were washed in ice-cold FACS buffer.\n(§2) When biotinylated compounds were used an additional incubation step with 1 μg/mL APC-Streptavidin (Miltenyi; #130-106-791) in 50 μL FACS buffer for 30 minutes on ice was performed.\n(§3) Cells were washed twice with ice-cold FACS buffer and analyzed in an Attune NxT flow cytometer (Thermo Fisher). Median fluorescence intensities (MFI) of the APC/Cy5-channel were calculated by Attune NxT software."}, "[2]": {"target": "T2, murine carbonic anhydrase 9 (CAIX) (mouse, UniProt Q8VHB5 32-437)", "T2 construct": "On transfected CHO-VGT cells; also called mouse CAIX", "T2 sequence (Q8VHB5 32-437 limits assumed)": "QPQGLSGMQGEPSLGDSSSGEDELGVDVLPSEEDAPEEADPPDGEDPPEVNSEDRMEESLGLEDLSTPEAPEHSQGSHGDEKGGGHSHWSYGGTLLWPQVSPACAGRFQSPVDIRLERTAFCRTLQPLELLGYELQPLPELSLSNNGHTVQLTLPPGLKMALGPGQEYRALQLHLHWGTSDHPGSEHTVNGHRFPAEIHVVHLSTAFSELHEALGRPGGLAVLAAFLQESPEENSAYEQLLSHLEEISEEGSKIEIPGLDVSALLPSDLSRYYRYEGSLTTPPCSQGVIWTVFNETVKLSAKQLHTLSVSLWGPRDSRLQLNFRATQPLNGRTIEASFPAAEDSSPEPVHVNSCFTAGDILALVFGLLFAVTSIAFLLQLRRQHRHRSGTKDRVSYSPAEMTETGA", "test": "radioligand binding, 111In-labeled compound, CHO cells with mouse CAIX; pKD category C: 6.1-7.0"}, "[3]": {"target": "T3, human carbonic anhydrase IX (CAIX) (human, UniProt Q16790 38-459)", "test": "radioligand binding, 111In-labeled compound, CHO cells with human CAIX; pKD category A: >8.0", "description": "(§4) CHO-VGT cells were transfected with the human, dog, and mouse CAIX (InSCREENex GmbH) and cultured in Ham's F-12 medium (Sigma-Aldrich #N4888) supplemented with 10% fetal bovine serum (FCS), 2 mM L-glutamine, 100 U/mL Penicillin, and 0.1 mg/mL streptomycin. […] Cell concentrations were adjusted to 3×10⁵ mL⁻¹, and 1.000 μL of the suspension per well were dispensed into flat-clear-bottom 24 well plates.\n(§5) Approximately 24 hours after re-seeding, the medium was aspirated and the cells were washed once with 1000 μL assay medium (Ham's medium without additives). To determine total binding, 700 μL of assay medium and 100 μL of the radioligand dilutions were added to the wells in triplicates. To determine non-specific binding, 600 μL of binding medium, 100 μL of the radioligand dilutions and 100 μL of a blocking solution containing 8 μM non-labeled compound were added to the wells in triplicates. […] An aliquot of each radioligand dilution was included in the gamma counter measurements to allow for determination of their actual concentrations via their known specific activity."}, "[4]": {"target": "T4, canine carbonic anhydrase 9 (CAIX) (dog)", "T4 construct": "On transfected CHO-VGT cells; also called dog CAIX", "test": "radioligand binding, 111In-labeled compound, CHO cells with dog CAIX; pKD category A: >8.0", "T4 sequence (chain, as listed by the source limits assumed)": "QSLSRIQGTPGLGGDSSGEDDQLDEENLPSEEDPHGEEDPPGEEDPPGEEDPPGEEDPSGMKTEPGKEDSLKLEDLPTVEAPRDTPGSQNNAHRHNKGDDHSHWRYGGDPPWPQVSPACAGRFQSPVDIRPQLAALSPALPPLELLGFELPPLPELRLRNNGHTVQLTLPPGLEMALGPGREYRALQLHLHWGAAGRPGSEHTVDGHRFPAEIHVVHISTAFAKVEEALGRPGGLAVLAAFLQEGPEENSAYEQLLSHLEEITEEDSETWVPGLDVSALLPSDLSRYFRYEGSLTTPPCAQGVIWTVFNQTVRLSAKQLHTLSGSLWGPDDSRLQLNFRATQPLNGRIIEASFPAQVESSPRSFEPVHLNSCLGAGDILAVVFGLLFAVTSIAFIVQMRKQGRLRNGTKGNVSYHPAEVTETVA", "description": "as §4, §5"}, "[5]": {"target": "T3, human carbonic anhydrase IX (CAIX)", "test": "FACS competition, HT-29 cells, tracer printed 3BP-414 (probably 3BP-4149); pIC50 category B: 7.1-8.0", "procedure": "as §1, §2, §3"}, "[6]": {"target": "T5, Fc-fusion protein of human carbonic anhydrase IX (human, UniProt Q16790 38-414)", "test": "SPR, captured hCAIX-Fc; pKD category A: >8.0"}, "[7]": {"target": "T5, Fc-fusion protein of human carbonic …", "test": "SPR, captured hCAIX-Fc; t1/2 category A: >15.0 min"}, "[8]": {"target": "T6, canine carbonic anhydrase 9 (CAIX) (dog)", "T6 construct": "also called dog CAIX; dgCAIX", "test": "radioligand saturation binding on CHO cells with dog CAIX, 8 h at 37 C", "T6 sequence (chain, as listed by the source limits assumed)": "as above", "description": "(§6) The radioligand saturation binding on CHO-huCAIX and dgCAIX was determined as follows. […] To determine total binding, 700 μL of binding medium and 100 μL of the radioligand dilutions were added to the wells in triplicates. […] The plates were incubated for 8 h at 37° C. under standard cell culture conditions (5% CO2). At the end of the incubation time the plates were placed on ice while aspirating the radioligand solutions. Aliquots of the 20 nM supernatants were transferred to HPLC vials for analysis of radioligand stability over the incubation time. Subsequently, the cells were washed with ice-cold PBS (0.5 mL, 1 mL, 1 mL). 300 μL of RIPA buffer containing PIC was added to each well and the plates were placed on a shaker for 10 min at ambient temperature. 200 μL of the cell lysate of each well was transferred to gamma-counting tubes. Their associated radioactivity was counted using a gamma counter and normalized to the measured protein concentration of each well (see chapter 6.3.7 BCA protein assay). An aliquot of each radioligand dilution was included in the gamma counter measurements to allow for determination of the actual radioligand concentrations in the dilution series."}, "[9]": {"target": "T1, human carbonic anhydrase 9 (CAIX)", "test": "FACS binding assay on CAIX-expressing HT-29 cells, Cy5-labeled compound; pEC50 category (A = pEC50 >8.0)", "procedure": "as §1, §2, §3"}, "[10]": {"target": "T2, murine carbonic anhydrase 9 (CAIX)", "test": "radioligand binding, 111In-labeled compound, CHO cells with mouse CAIX; pKD category B: 7.1-8.0"}, "[11]": {"target": "T2, murine carbonic anhydrase 9 (CAIX)", "test": "radioligand binding, 111In-labeled compound, CHO cells with mouse CAIX; pKD category A: >8.0", "description": "as §4, §5"}, "[12]": {"target": "T7, canine carbonic anhydrase 9 (CAIX) (dog)", "T7 construct": "Expressed on transfected CHO cells (CHO-dogCA9); also called dgCAIX; dog CAIX", "test": "radioligand saturation binding on CHO-dgCAIX cells, 8 h at 37 °C, experiment ii", "T7 sequence (chain, as listed by the source limits assumed)": "as above", "description": "as §6"}, "[13]": {"target": "T7, canine carbonic anhydrase 9 (CAIX)", "test": "radioligand saturation binding on CHO-dgCAIX cells, 8 h at 37 °C, experiment iii", "description": "as §6"}},
  "note": "Starred links: 1 amine or outer side, 2 acyl side, 3 side chain; linkers in the order of their positions; H or OH if unused. Positions of bridges follow the written chain, without caps; N, C: chain ends. Non-standard residues stand in square brackets, D forms with d. Primed or numbered codes have the meaning given here. *: point of attachment. Aph(SaPr)(5) = 4-amino-L-phenylalanine acylated on the ring amine with 3-sulfamoylpropanoic acid, NS(=O)(=O)CCC(=O)Nc1ccc(C[C@H](N[*:1])C(=O)[*:2])cc1; Aph(SaPr)(3) = 4-amino-L-phenylalanine with ring amino acylated by 3-sulfamoylpropanoic acid, NS(=O)(=O)CCC(=O)Nc1ccc(C[C@H](N[*:1])C(=O)[*:2])cc1; Aph(SaPr)″ = 4-amino-L-phenylalanine, ring amine acylated with 3-sulfamoylpropanoic acid, NS(=O)(=O)CCC(=O)Nc1ccc(C[C@H](N[*:1])C(=O)[*:2])cc1; Ttds(4) = 1,13-diamino-4,7,10-trioxatridecan-succinamic acid spacer, O=C(CCC(=O)[*:2])NCCCOCCOCCOCCCN[*:1]; 111In‑DOTA = O=C([O-])CN1CCN(CC(=O)[O-])CCN(CC(=O)*)CCN(CC(=O)[O-])CC1.[111In+3]; Phe(3-NHCO(CH2)3SO2NH2) = N[C@@H](Cc1cccc(NC(=O)CCCS(N)(=O)=O)c1)C(=O)O; APAc″ = 2-(4-(amino)piperidin-1-yl)acetic acid, NC1CCN(CC(=O)*)CC1; DOTA = O=C(O)CN1CCN(CC(=O)O)CCN(CC(=O)*)CCN(CC(=O)O)CC1; Biotin = O=C1N[C@H]2[C@H](CS[C@H]2CCCCC(=O)*)N1; PPAc = 4-carboxymethyl piperazine linker; mXylylene = c1cc(C[*:1])cc(C[*:2])c1; Cy5SO3 = Cy5 dye with one sulfonate; Dap = NC[C@H](N)C(=O)O; Sni = not defined here",
  "data": [
    {"binder": "B1", "values": [
      {"measurement": "pEC50", "setting": "[1]", "result": "7.1 to 8", "unit": "pec50"}
    ]},
    {"binder": "{111In‑DOTA-APAc″}-VYCE[dP]DWLTWSC-NH2 (linker 3-12 via mXylylene, also called 3BP-3583 (111In-labeled))", "note": "[111In-3BP-3583]", "values": [
      {"measurement": "pKD", "setting": "[2]", "result": "6.1 to 7", "unit": "pkd"},
      {"measurement": "pKD", "setting": "[3]", "result": "> 8", "unit": "pkd"},
      {"measurement": "pKD", "setting": "[4]", "result": "> 8", "unit": "pkd"}
    ]},
    {"binder": "{DOTA-Sni}-YCE[dP]D[Phe(3-NHCO(CH2)3SO2NH2)]LTWSC-NH2 (linker 2-11 via mXylylene; reading uncertain)", "note": "[3BP-4454]", "values": [
      {"measurement": "pIC50", "setting": "[5]", "result": "7.1 to 8", "unit": "pic50"},
      {"measurement": "pKD", "setting": "[6]", "result": "> 8", "unit": "pkd"},
      {"measurement": "t1/2 (half-life of the complex, SPR)", "setting": "[7]", "result": "> 15", "unit": "min"}
    ]},
    {"binder": "B2", "values": [
      {"measurement": "pKd", "setting": "[8]", "result": "≥ 9"}
    ]},
    {"binder": "B3", "values": [
      {"measurement": "pKd", "setting": "[8]", "result": "≥ 9"}
    ]},
    {"binder": "{Cy5SO3-APAc″}-VYCE[dP]DWLTWSC-NH2 (linker 3-12 via mXylylene, Cyclic peptide with a fluorophore)", "note": "[3BP-4149: Cy5SO3-APAc-Val-Tyr-[Cys(3MeBn)-Glu-pro-Asp-Trp-Leu-Thr-Trp-Ser-Cys]-NH2]", "values": [
      {"measurement": "pEC50", "setting": "[9]", "result": "> 8", "unit": "pec50"}
    ]},
    {"binder": "{111In‑DOTA-PPAc}-QCE[dP]D[Phe(3-NHCO(CH2)3SO2NH2)]LTWSC-NH2 (linker 2-11 via mXylylene, also called [111In]In-DPI-4452)", "note": "[111In-3BP-4452]", "values": [
      {"measurement": "pKD", "setting": "[4]", "result": "> 8", "unit": "pkd"},
      {"measurement": "pKD", "setting": "[10]", "result": "7.1 to 8", "unit": "pkd"}
    ]},
    {"binder": "{111In‑DOTA}-QCE[dP]D[Aph(SaPr)(5)]LTWSC-NH2 (linker 2-11 via mXylylene, also called [111In]In-DPI-4501)", "note": "[111In-3BP-4501]", "values": [
      {"measurement": "pKD", "setting": "[4]", "result": "> 8", "unit": "pkd"},
      {"measurement": "pKD", "setting": "[10]", "result": "7.1 to 8", "unit": "pkd"}
    ]},
    {"binder": "{111In‑DOTA}-ECE[dP]D[Phe(3-NHCO(CH2)3SO2NH2)]LTW[Dap]C-NH2 (lactam 1-10; linker 2-11 via mXylylene, also called 3BP-4503 (111In-labeled))", "note": "[111In-3BP-4503]", "values": [
      {"measurement": "pKD", "setting": "[3]", "result": "> 8", "unit": "pkd"},
      {"measurement": "pKD", "setting": "[4]", "result": "> 8", "unit": "pkd"},
      {"measurement": "pKD", "setting": "[11]", "result": "> 8", "unit": "pkd"}
    ]},
    {"binder": "B4", "values": [
      {"measurement": "pKd", "setting": "[12]", "result": "9.5 -log10(M)"}
    ]},
    {"binder": "B5", "values": [
      {"measurement": "pKd", "setting": "[13]", "result": "9.6 -log10(M)"}
    ]}
  ]
}
